In PMC3911951, “Crystal Structure of Arginine Methyltransferase 6 from Trypanosoma brucei” (PLoS ONE, 2014):
pKd: −log10 of the molar value. Blank lines part the entries; values can stand above or below the substance they belong to.

What was measured:
[1] = biological target: Trypanosoma brucei arginine methyltransferase 6 (TbPRMT6), SAH-bound (Trypanosoma brucei); assay: ITC; AcH4-21 peptide (3 mM) injected into TbPRMT6 (100 uM) bound to SAH; MicroCal iTC200, 25 °C; 30 mM Tris pH 8.0, 100 mM NaCl, 1 mM EDTA; one-binding-site model
[2] = biological target: Trypanosoma brucei arginine methyltransferase 6 (TbPRMT6) (Trypanosoma brucei); assay: SAXS; FL-TbPRMT6 at 1.0, 3.0 and 5.0 mg/ml in 30 mM Tris pH 8.0, 200 mM NaCl, 1 mM EDTA; molecular mass by SAXSMOW
[3] = biological target: Trypanosoma brucei arginine methyltransferase 6 (TbPRMT6) (Trypanosoma brucei); assay: ITC; 3 mM AcH4-21 peptide injected into 100 µM TbPRMT6 with SAH bound; 25°C; 30 mM Tris pH 8.0, 100 mM NaCl, 1 mM EDTA; one-binding-site model

Substance: AcH4-21, peptide corresponding to the first 21 residues of bovine histone H4
stoichiometry N [1]: 1.79

stoichiometry N [2]: 2
Substance: Trypanosoma brucei arginine methyltransferase 6 (TbPRMT6) (enzyme)

Substance: peptide corresponding to the first 21 residues of bovine histone H4 (AcH4-21)
pKd [3]: 4.35
